Measurements: patent US20260274980A1 (BIOARCTIC, published 2026)

B1: 2A-3 #7 (bispecific antibody, human IgG1, kappa)
heavy: not shown
chain: DIVMTQAPLSLPVSLGDQASISCRSSQSIVHSNGNTYLEWYLQKPGQSPKLLIYKVSNRFSGVPDRFSGSGSGTDFTLKISRVEAEDLGIYYCFQGSHVPPTFGGGTKLEIKRTVAAPSVFIFPPSDEQLKSGTASVVCLLNNFYPREAKVQWKVDNALQSGNSQESVTEQDSKDSTYSLSSTLTLSKADYEKHKVYACEVTHQGLSSPVTKSFNRGECGGGGSGGGGSGGGGSGGGGSGGGGSEVQLVQSGAEVKKPGSSVKVSCKASGYIFTDYNMDWVRQAPGQGLEWIGDINPDADTTSYNEKFKGRATLTVDKSTSTAYMELSSLRSEDTAVYYCARGGYSGSSYYHPMDYWGQGTLVTVSSGGGGSGGGGSGGGGSDIQMTQSPSSVSASVGDRVTITCKSSQSLLYSTNQKNYLAWYQQKPGKAPKLLIYWASTRESGVPSRFSGSGSGTDFTLTISSLQPEDFATYYCQQYFIYPRTFGQGTKVEIKGGGGSGGGGSGGGGSGGGGSGGGGSDIVMTQAPLSLPVSLGDQASISCRSSQSIVHSNGNTYLEWYLQKPGQSPKLLIYKVSNRFSGVPDRFSGSGSGTDFTLKISRVEAEDLGIYYCFQGSHVPPTFGGGTKLEIKRTVAAPSVFIFPPSDEQLKSGTASVVCLLNNFYPREAKVQWKVDNALQSGNSQESVTEQDSKDSTYSLSSTLTLSKADYEKHKVYACEVTHQGLSSPVTKSFNRGEC
notes: also called Gen 2A construct #7; VH first
B2: 2A-3 #1 (bispecific antibody, human IgG1, kappa)
heavy: not shown
chain: DIVMTQAPLSLPVSLGDQASISCRSSQSIVHSNGNTYLEWYLQKPGQSPKLLIYKVSNRFSGVPDRFSGSGSGTDFTLKISRVEAEDLGIYYCFQGSHVPPTFGGGTKLEIKRTVAAPSVFIFPPSDEQLKSGTASVVCLLNNFYPREAKVQWKVDNALQSGNSQESVTEQDSKDSTYSLSSTLTLSKADYEKHKVYACEVTHQGLSSPVTKSFNRGECGGGGSEVQLVQSGAEVKKPGSSVKVSCKASGYIFTDYNMDWVRQAPGQGLEWIGDINPDADTTSYNEKFKGRATLTVDKSTSTAYMELSSLRSEDTAVYYCARGGYSGSSYYHPMDYWGQGTLVTVSSGGGGSGGGGSGGGGSDIQMTQSPSSVSASVGDRVTITCKSSQSLLYSTNQKNYLAWYQQKPGKAPKLLIYWASTRESGVPSRFSGSGSGTDFTLTISSLQPEDFATYYCQQYFIYPRTFGQGTKVEIKGGGGSGGGGSGGGGSGGGGSDIVMTQAPLSLPVSLGDQASISCRSSQSIVHSNGNTYLEWYLQKPGQSPKLLIYKVSNRFSGVPDRFSGSGSGTDFTLKISRVEAEDLGIYYCFQGSHVPPTFGGGTKLEIKRTVAAPSVFIFPPSDEQLKSGTASVVCLLNNFYPREAKVQWKVDNALQSGNSQESVTEQDSKDSTYSLSSTLTLSKADYEKHKVYACEVTHQGLSSPVTKSFNRGEC
notes: also called Gen 2A construct #1; VH first
B3: 2A-3 #2 (bispecific antibody, human IgG1, kappa)
heavy: not shown
chain: DIVMTQAPLSLPVSLGDQASISCRSSQSIVHSNGNTYLEWYLQKPGQSPKLLIYKVSNRFSGVPDRFSGSGSGTDFTLKISRVEAEDLGIYYCFQGSHVPPTFGGGTKLEIKRTVAAPSVFIFPPSDEQLKSGTASVVCLLNNFYPREAKVQWKVDNALQSGNSQESVTEQDSKDSTYSLSSTLTLSKADYEKHKVYACEVTHQGLSSPVTKSFNRGECGGGGSGGGGSEVQLVQSGAEVKKPGSSVKVSCKASGYIFTDYNMDWVRQAPGQGLEWIGDINPDADTTSYNEKFKGRATLTVDKSTSTAYMELSSLRSEDTAVYYCARGGYSGSSYYHPMDYWGQGTLVTVSSGGGGSGGGGSGGGGSDIQMTQSPSSVSASVGDRVTITCKSSQSLLYSTNQKNYLAWYQQKPGKAPKLLIYWASTRESGVPSRFSGSGSGTDFTLTISSLQPEDFATYYCQQYFIYPRTFGQGTKVEIKGGGGSGGGGSGGGGSGGGGSDIVMTQAPLSLPVSLGDQASISCRSSQSIVHSNGNTYLEWYLQKPGQSPKLLIYKVSNRFSGVPDRFSGSGSGTDFTLKISRVEAEDLGIYYCFQGSHVPPTFGGGTKLEIKRTVAAPSVFIFPPSDEQLKSGTASVVCLLNNFYPREAKVQWKVDNALQSGNSQESVTEQDSKDSTYSLSSTLTLSKADYEKHKVYACEVTHQGLSSPVTKSFNRGEC
notes: also called Gen 2A construct #2; VH first
B4: 2A-3 #4 (bispecific antibody, human IgG1, kappa)
heavy: not shown
chain: DIVMTQAPLSLPVSLGDQASISCRSSQSIVHSNGNTYLEWYLQKPGQSPKLLIYKVSNRFSGVPDRFSGSGSGTDFTLKISRVEAEDLGIYYCFQGSHVPPTFGGGTKLEIKRTVAAPSVFIFPPSDEQLKSGTASVVCLLNNFYPREAKVQWKVDNALQSGNSQESVTEQDSKDSTYSLSSTLTLSKADYEKHKVYACEVTHQGLSSPVTKSFNRGECGGGGSEVQLVQSGAEVKKPGSSVKVSCKASGYIFTDYNMDWVRQAPGQGLEWIGDINPDADTTSYNEKFKGRATLTVDKSTSTAYMELSSLRSEDTAVYYCARGGYSGSSYYHPMDYWGQGTLVTVSSGGGGSGGGGSGGGGSDIQMTQSPSSVSASVGDRVTITCKSSQSLLYSTNQKNYLAWYQQKPGKAPKLLIYWASTRESGVPSRFSGSGSGTDFTLTISSLQPEDFATYYCQQYFIYPRTFGQGTKVEIKGGGGSGGGGSGGGGSGGGGSGGGGSDIVMTQAPLSLPVSLGDQASISCRSSQSIVHSNGNTYLEWYLQKPGQSPKLLIYKVSNRFSGVPDRFSGSGSGTDFTLKISRVEAEDLGIYYCFQGSHVPPTFGGGTKLEIKRTVAAPSVFIFPPSDEQLKSGTASVVCLLNNFYPREAKVQWKVDNALQSGNSQESVTEQDSKDSTYSLSSTLTLSKADYEKHKVYACEVTHQGLSSPVTKSFNRGEC
notes: also called Gen 2A construct #4; VH first
B5: 2A-3 #9 (bispecific antibody, human IgG1, kappa)
heavy: not shown
chain: DIVMTQAPLSLPVSLGDQASISCRSSQSIVHSNGNTYLEWYLQKPGQSPKLLIYKVSNRFSGVPDRFSGSGSGTDFTLKISRVEAEDLGIYYCFQGSHVPPTFGGGTKLEIKRTVAAPSVFIFPPSDEQLKSGTASVVCLLNNFYPREAKVQWKVDNALQSGNSQESVTEQDSKDSTYSLSSTLTLSKADYEKHKVYACEVTHQGLSSPVTKSFNRGECGGGGSGGGGSDIQMTQSPSSVSASVGDRVTITCKSSQSLLYSTNQKNYLAWYQQKPGKAPKLLIYWASTRESGVPSRFSGSGSGTDFTLTISSLQPEDFATYYCQQYFIYPRTFGQGTKVEIKGGGGSGGGGSGGGGSEVQLVQSGAEVKKPGSSVKVSCKASGYIFTDYNMDWVRQAPGQGLEWIGDINPDADTTSYNEKFKGRATLTVDKSTSTAYMELSSLRSEDTAVYYCARGGYSGSSYYHPMDYWGQGTLVTVSSGGGGSGGGGSGGGGSGGGGSDIVMTQAPLSLPVSLGDQASISCRSSQSIVHSNGNTYLEWYLQKPGQSPKLLIYKVSNRFSGVPDRFSGSGSGTDFTLKISRVEAEDLGIYYCFQGSHVPPTFGGGTKLEIKRTVAAPSVFIFPPSDEQLKSGTASVVCLLNNFYPREAKVQWKVDNALQSGNSQESVTEQDSKDSTYSLSSTLTLSKADYEKHKVYACEVTHQGLSSPVTKSFNRGEC
notes: also called Gen 2A construct #9; VL first
B6: 2A-3 #10 (bispecific antibody, human IgG1, kappa)
heavy: not shown
chain: DIVMTQAPLSLPVSLGDQASISCRSSQSIVHSNGNTYLEWYLQKPGQSPKLLIYKVSNRFSGVPDRFSGSGSGTDFTLKISRVEAEDLGIYYCFQGSHVPPTFGGGTKLEIKRTVAAPSVFIFPPSDEQLKSGTASVVCLLNNFYPREAKVQWKVDNALQSGNSQESVTEQDSKDSTYSLSSTLTLSKADYEKHKVYACEVTHQGLSSPVTKSFNRGECGGGGSGGGGSGGGGSDIQMTQSPSSVSASVGDRVTITCKSSQSLLYSTNQKNYLAWYQQKPGKAPKLLIYWASTRESGVPSRFSGSGSGTDFTLTISSLQPEDFATYYCQQYFIYPRTFGQGTKVEIKGGGGSGGGGSGGGGSEVQLVQSGAEVKKPGSSVKVSCKASGYIFTDYNMDWVRQAPGQGLEWIGDINPDADTTSYNEKFKGRATLTVDKSTSTAYMELSSLRSEDTAVYYCARGGYSGSSYYHPMDYWGQGTLVTVSSGGGGSGGGGSGGGGSGGGGSDIVMTQAPLSLPVSLGDQASISCRSSQSIVHSNGNTYLEWYLQKPGQSPKLLIYKVSNRFSGVPDRFSGSGSGTDFTLKISRVEAEDLGIYYCFQGSHVPPTFGGGTKLEIKRTVAAPSVFIFPPSDEQLKSGTASVVCLLNNFYPREAKVQWKVDNALQSGNSQESVTEQDSKDSTYSLSSTLTLSKADYEKHKVYACEVTHQGLSSPVTKSFNRGEC
notes: also called Gen 2A construct #10; VL first
B7: 2A-3 #11 (bispecific antibody, human IgG1, kappa)
heavy: not shown
chain: DIVMTQAPLSLPVSLGDQASISCRSSQSIVHSNGNTYLEWYLQKPGQSPKLLIYKVSNRFSGVPDRFSGSGSGTDFTLKISRVEAEDLGIYYCFQGSHVPPTFGGGTKLEIKRTVAAPSVFIFPPSDEQLKSGTASVVCLLNNFYPREAKVQWKVDNALQSGNSQESVTEQDSKDSTYSLSSTLTLSKADYEKHKVYACEVTHQGLSSPVTKSFNRGECGGGGSDIQMTQSPSSVSASVGDRVTITCKSSQSLLYSTNQKNYLAWYQQKPGKAPKLLIYWASTRESGVPSRFSGSGSGTDFTLTISSLQPEDFATYYCQQYFIYPRTFGQGTKVEIKGGGGSGGGGSGGGGSEVQLVQSGAEVKKPGSSVKVSCKASGYIFTDYNMDWVRQAPGQGLEWIGDINPDADTTSYNEKFKGRATLTVDKSTSTAYMELSSLRSEDTAVYYCARGGYSGSSYYHPMDYWGQGTLVTVSSGGGGSGGGGSGGGGSGGGGSGGGGSDIVMTQAPLSLPVSLGDQASISCRSSQSIVHSNGNTYLEWYLQKPGQSPKLLIYKVSNRFSGVPDRFSGSGSGTDFTLKISRVEAEDLGIYYCFQGSHVPPTFGGGTKLEIKRTVAAPSVFIFPPSDEQLKSGTASVVCLLNNFYPREAKVQWKVDNALQSGNSQESVTEQDSKDSTYSLSSTLTLSKADYEKHKVYACEVTHQGLSSPVTKSFNRGEC
notes: also called Gen 2A construct #11; VL first

Each binder was assayed against T1, human transferrin receptor 1 (hTfR1) on cell surfaces (human, UniProt P02786 1-760) (assay: flow cytometry on Ramos cells (hTfR1 on the surface), Fc receptors blocked, overnight at 4 °C, detection with anti-human IgG-Alexa Fluor 488).
T1 construct: Endogenous receptor on hCMEC/D3, THP-1, K562 and Ramos cells; also called CD71; endogenous hTfR1
T1 sequence (P02786 whole entry): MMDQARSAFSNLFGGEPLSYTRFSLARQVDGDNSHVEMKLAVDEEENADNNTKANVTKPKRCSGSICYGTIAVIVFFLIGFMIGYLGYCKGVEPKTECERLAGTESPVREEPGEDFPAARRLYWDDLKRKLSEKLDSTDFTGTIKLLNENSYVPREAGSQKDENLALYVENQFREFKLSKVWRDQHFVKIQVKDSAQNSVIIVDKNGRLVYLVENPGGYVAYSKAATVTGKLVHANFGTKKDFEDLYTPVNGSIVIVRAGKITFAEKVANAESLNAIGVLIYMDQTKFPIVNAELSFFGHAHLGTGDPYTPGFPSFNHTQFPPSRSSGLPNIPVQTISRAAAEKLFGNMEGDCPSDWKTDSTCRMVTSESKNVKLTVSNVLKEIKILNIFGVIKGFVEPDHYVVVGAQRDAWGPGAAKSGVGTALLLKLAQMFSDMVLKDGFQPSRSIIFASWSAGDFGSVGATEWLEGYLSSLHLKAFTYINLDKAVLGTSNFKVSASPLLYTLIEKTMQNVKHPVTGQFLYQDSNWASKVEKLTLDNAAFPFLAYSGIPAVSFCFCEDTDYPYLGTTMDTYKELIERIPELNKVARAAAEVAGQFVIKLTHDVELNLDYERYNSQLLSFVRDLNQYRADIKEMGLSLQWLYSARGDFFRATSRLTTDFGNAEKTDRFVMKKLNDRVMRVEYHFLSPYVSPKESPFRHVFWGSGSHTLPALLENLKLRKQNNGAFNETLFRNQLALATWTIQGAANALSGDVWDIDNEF
Procedure: Binding to hTfR1 on cells was measured on the immortalized human B lymphocyte cell line Ramos (Sigma, cat: 85030802). This cell line is known for expressing high levels of hTfR1 on the cell surface. Fcγ receptors were blocked using Fc receptor blocker (Innovex biosciences, #NB309-4X-40) for 30 min at 4° C., after which the cells were washed in PBS. The cells were seeded in a 96 well V bottom plate (#249570, Thermo Scientific Nunc), and serially diluted Gen 2A constructs were added and the plate was incubated at 4° C. overnight. The cells were washed with PBS with 1% BSA and then fixed with freshly prepared 4% formaldehyde (Thermo Scientific Pierce, #28906) diluted in PBS for 15 min at room temperature. The cells were washed with PBS containing 1% BSA, and then stained. […] Staining was carried out for 30 min at 4° C. After incubation with the detection reagent, cells were washed with PBS containing 1% BSA. The cells were finally resuspended in 200 μl PBS with 1% BSA and acquired using a BD FACSLyric flow cytometer system (BD Biosciences). Samples were analyzed using flowJo software (BD Biosciences).

Binding result, binds:
B1
B2
B3
B4
B5
B6
B7
